Key:
[1] = biological target: T1, 小鼠Prdx1蛋白 (endogenous mouse Prdx1 in liver, lung, kidney tissue and primary macrophages) (mouse, UniProt P35700 2-199); experiment: Western blot on mouse liver, lung, kidney, primary macrophages
T1 construct: Endogenous protein, denatured on Western blot; also called 鼠源性Prdx1蛋白; 小鼠的Prdx1蛋白
T1 sequence (looked up): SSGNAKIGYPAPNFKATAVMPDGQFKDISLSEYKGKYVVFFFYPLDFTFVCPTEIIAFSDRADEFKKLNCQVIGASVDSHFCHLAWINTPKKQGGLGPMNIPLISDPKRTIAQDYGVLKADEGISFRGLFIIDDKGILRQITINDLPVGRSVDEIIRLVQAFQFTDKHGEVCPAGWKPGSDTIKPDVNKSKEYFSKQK

[2] = biological target: T2, 人源性Prdx1重组蛋白 (recombinant peroxiredoxin 1 protein bought from Abclone) (human, UniProt Q06830 1-199, limits assumed); experiment: ELISA on recombinant human Prdx1
T2 construct: Bought recombinant protein; also called 重组prdx1蛋白; 重组Prdx1
T2 sequence (looked up): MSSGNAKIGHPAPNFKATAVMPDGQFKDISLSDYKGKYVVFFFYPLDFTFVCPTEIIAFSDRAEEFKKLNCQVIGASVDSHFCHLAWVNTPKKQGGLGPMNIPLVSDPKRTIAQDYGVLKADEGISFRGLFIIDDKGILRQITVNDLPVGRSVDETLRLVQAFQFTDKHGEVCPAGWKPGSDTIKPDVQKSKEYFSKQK

B1: 抗Prdx1蛋白的单克隆中和抗体 (mouse monoclonal anti-human Prdx1 neutralizing antibody, Example 4) (antibody, V domains shown)
VH: QVQLQQSGPELMKPGASVKISCKATGYTFSNSWIEWVKQRPGHGLEWIGEILPGSGDTDYNEKFKGKATITADTSSNTAYMQLSSLTSEDSAVYYCASPYGDYFFANWGLGTLVTVSA
VL: DIVITQDELSNPVTSGESVSISCRSSKSLLYKDGKTYLNWFLQRPGQSPQLLIYLMSTRAAGVSDRFSGSGSGTDFTLEISRVKAEDVGVYYCQQLVEYPYTFGGGTKLEIK
notes: Mouse (BALB/c) hybridoma IgG purified from ascites on protein G; also called Prdx1单克隆抗体; Prdx1单克隆中和抗体
Does B1 bind [1]?
Result: binds

Does B1 bind [2]?
Result: binds

Source: patent CN117003877A (XIANGYA HOSPITAL CENTRAL SOUTH UNIV, dated 2023)
